Test results: publication PMC11996858, “Cathepsin K cleavage of angiopoietin-2 creates detrimental Tie2 antagonist fragments in sepsis” (The Journal of Clinical Investigation, 2025)

Target: the molecule itself
Assay: non-reducing SDS-PAGE with Western blot; recombinant ANGPT2 incubated with CM-Mq^Veh or CM-Mq^LPS (serum-free conditioned media of RAW264.7 cells), then SDS-PAGE under nonreducing conditions against reduced conditions (10% beta-mercaptoethanol) and Western analysis for ANGPT2

B1: recombinant human angiopoietin-2, full length (ligand, UniProt O15123 19-496, looked up)
chain: YNNFRKSMDSIGKKQYQVQHGSCSYTFLLPEMDNCRSSSSPYVSNAVQRDAPLEYDDSVQRLQVLENIMENNTQWLMKLENYIQDNMKKEMVEIQQNAVQNQTAVMIEIGTNLLNQTAEQTRKLTDVEAQVLNQTTRLELQLLEHSLSTNKLEKQILDQTSEINKLQDKNSFLEKKVLAMEDKHIIQLQSIKEEKDQLQVLVSKQNSIIEELEKKIVTATVNNSVLQKQQHDLMETVNNLLTMMSTSNSAKDPTVAKEEQISFRDCAEVFKSGHTTNGIYTLTFPNSTEEIKAYCDMEAGGGGWTIIQRREDGSVDFQRTWKEYKVGFGNPSGEYWLGNEFVSQLTNQQRYVLKIHLKDWEGNEAYSLYEHFYLSSEELNYRIHLKGLTGTAGKISSISQPGNDFSTKDGDNDKCICKCSQMLTGGWWFDACGPSNLNGMYYPQRQNTNKFNGIKWYYWKGSGYSLKATTMMIRPADF
notes: angiopoietin-2 (ANGPT2), human, recombinant full-length protein of about 75 kDa (glycosylated); As a secreted recombinant protein it probably lacks the signal peptide (surmised); also called ANGPT2; full-length ANGPT2; source: bought: R&D Systems
stoichiometry N: ≥ 2
